Laboratory results taken from article PMC11387410.

What was measured:
[1] = molecular target: LgBiT-BOK-TMD (transmembrane domain of BOK as NanoBiT fusion) (UniProt Q9UMX3); test: split reporter (BiFC, NanoBiT); NanoBiT split luciferase in living HEK293FT cells; LgBiT-TMD and SmBiT-TMD plasmids transfected 1:1, 24 h; cells in Opti-MEM, 5 uM coelenterazine-h, luminescence 30 min after substrate; absolute RLU (Fig. 1C) or normalized to mTurquoise2 fluorescence and set relative to BAX-TMD/BAX-TMD = 1 (Fig. 1F, 6C)
[2] = molecular target: LgBiT-BOK-TMD (transmembrane domain of BOK as NanoBiT fusion) (UniProt Q9UMX3); test: split reporter (BiFC, NanoBiT); NanoBiT split luciferase in living MCF-7 cells; transfected 24 h; luminescence relative to the positive control BAX-TMD/BAX-TMD
[3] = molecular target: BAX-TMD (transmembrane domain of BAX) as NanoBiT fusion (UniProt Q07812); test: split reporter (BiFC, NanoBiT); NanoBiT split luciferase in living HEK293FT cells; LgBiT-TMD and SmBiT-TMD plasmids transfected 1:1, 24 h; cells in Opti-MEM, 5 uM coelenterazine-h, luminescence 30 min after substrate; absolute RLU (Fig. 1C) or normalized to mTurquoise2 fluorescence and set relative to BAX-TMD/BAX-TMD = 1 (Fig. 1F, 6C)

Chain of UniProt Q9UMX3 (Q9UMX3 whole entry, the tested form may be a part): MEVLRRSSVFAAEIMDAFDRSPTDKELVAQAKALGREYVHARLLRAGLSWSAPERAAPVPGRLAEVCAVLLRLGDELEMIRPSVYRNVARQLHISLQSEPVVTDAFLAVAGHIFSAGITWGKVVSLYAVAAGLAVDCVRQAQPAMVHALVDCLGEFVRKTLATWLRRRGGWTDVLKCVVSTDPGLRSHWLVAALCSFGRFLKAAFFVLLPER

Row | Substance | relative normalized luminescence (BAX-TMD/BAX-TMD = 1) (relative to the positive control) [1] | also measured
1 | SmBiT-BCL-2-TMD L223A V226A (from UniProt P10415 1-239) (domain or fragment) | 0.21 | –
2 | SmBiT-BCL-2-TMD (transmembrane domain of BCL-2 as NanoBiT fusion) (from UniProt P10415 1-239) (domain or fragment) | 0.47 | normalized luminescence as percent of the positive control (BAX-/BAX-TMD) (% of the positive control) [1]: 46; normalized luminescence as percent of the positive control (BAX-TMD/BAX-TMD) (% of the positive control) [2]: 30
3 | SmBiT-BCL-2-TMD V226A I230A (from UniProt P10415 1-239) (domain or fragment) | 0.21 | –
4 | SmBiT-BCL-2-TMD I230A (from UniProt P10415 1-239) (domain or fragment) | 0.21 | –
5 | BAX-TMD (transmembrane domain of BAX) as NanoBiT fusion (from UniProt Q07812 1-192) (domain or fragment) | – | luminescence [3]: 16600 RLU
6 | SmBiT-BCL-2-TMD L223A V226A I230A (from UniProt P10415 1-239) (domain or fragment) | 0.13 | –
